A short description of this data set: yeast display, Sf9 membrane polyspecificity reagent, FACS + sequencing; frameworks hold sequencing errors. Put shortly:
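A nanobody's polyreactivity label depends on the gate it was sorted from. Yeast display cells were stained with 10% biotinylated, detergent-solubilized Sf9 membrane reagent for 1 hour at 4 °C, enriched on streptavidin microbeads and sorted by FACS. The low and high (top ~1%) gates were set on anti-HA fluorescence for expression and streptavidin fluorescence for reagent binding.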
On to “QVQLVESGGGLVQAGGSLRLSCAASGFTLGSNAMGWYRQAPGKERELVAAISKSGGSTYYADSVKGRFTISRDNAKNTVYLQMNSLKPEDTAVYYCAARYLYQGYRYDYWGQGTQVTVSS”, for which the “polyreactivity (PSR sort gate)” value is on record as “high polyreactivity”. The entry for “QVQLVESGGGLVQAGGSLRLSCAASGLIFSRYAMGWYRQAPGKERELVAVISWSGGRTYYADSVKGRFTISRDNAKNTVYLQMNSLKPEDTAVYYCAARSYGGQGVRMDYWGQGTQVTVSS” is “high polyreactivity”. Regarding “QDQLVESAGGLVQAGGSLRLICAATGSNFNRYAMGWYRQAAGKEREFVAAITRRGGNTYYADSVKGRFTISRDHPKNTVYLQMNSLKPVDTAVYYCAAPFYFPAGLLYYENNYWGHGTQVTVSS”, the “polyreactivity (PSR sort gate)” value is listed as “high polyreactivity”.

As to “HVQLVESGGGLVQAGGSLRLSCAASGTFTYYAMGWYRQAPGKERELVAAITWRGGNTYYADSVKGRFTISRDNAKNTVYLQMNSLKPEDTAVYYCATDYWYIRWGGYYWGQGTQVTVSS”, the “polyreactivity (PSR sort gate)” value is “low polyreactivity”. In the case of “QVQLVESGGGLVQAGGSLRLSCAASGYTFYWNVMGWYRQAPGKERELVAVIDWSGGSTHYADSVKGRFTISRDNAKNTVYLQMNSLKPEDTAVYYCAAVDIRLEWDYWFQPTYDYWGQGTQVTVSS”, the “polyreactivity (PSR sort gate)” value is “low polyreactivity”. The entry for “QVQLVESGGGLVQAGGSLRLSCAASGRTFWSYAMGWYRQAPGKEREFVAAISRRGGITYYADSVKGRFTISRDNAKNTVYLQMNSLKPEDTAVYYCAKGAQSYYGGQVKYDYWGQGTQVTVSS” is “high polyreactivity”; for “QVQLVESGGGLVQAGGSLRLSCAASGSIFSYYAMGWYRQAPGKERELVAAISKRGASTYYADSVKGRFTISRDNAKNTVYLQMNSLKPEDTAVYYCAARPYGGGRRSIYYYWGQGTQVTVSS” it is “high polyreactivity”; for “QVQLVESGGGLVQARGSLRLSCASSGRTFYTYAMGWYRQAPGKERELVAAIRRVGSTNYADSVKGRFTISRDNAKNTGYLQMNSLKPEDTAVYYCAVRLVWPWQGYDYWGQGTQVTVSS” it is “low polyreactivity”.

In the case of “QVQLVESGGGLVQAGGSLRLSCAASGRTFLWYAMGWYRQAPGKERELVAAITTAGSTYYADSVKGRFTISRDNAKNTVYLQMNSLKPEDTAVYYCNRLTYAYPPPVLGVGHDSWGQGTQVTVSS”, the “polyreactivity (PSR sort gate)” value is “low polyreactivity”. The entry for “QVQLVESGGGLVQAGGSLRLSCAASGRTFRVYAMGWYRQAPGKERELVAAISGRGGSTYYADSVKGRFSISRDNAKNTVYFQMNSLKPEVTAVYYCAKSNPYLRLCEGNYWGQGTQVTVSS” is “high polyreactivity”; for “QVQLVESGGGLVQAGGSHRLSCAASGLTFSKYAMGWYRQAPGKERELVAAIRRSGGSTYYADSVKGRFTISRDNAKNTVYLQMNSLKPEDTAVYYCAADNYRYWNILRDYWGQGTQVTVSS” it is “low polyreactivity”; for “QVQLVESGGGLVQAGGSLRLSCAASGSIFGRYAMGWYRQAPGTEREGVAAISRSCDNTSYADSVKGRFTISRDTAKNTVYLQMNSLKPEDSAVYYCNADRPFSLGQRKYVDFDEPYNYWGQGTQVTVSS” it is “low polyreactivity”.

“QVQLVESGGGLVQAGGSLRLSCAASGRTFRSNVMGWYRPAPGNERELVASITWSGGTTYYADSVKGRFTISRDNAKNTVYLQMNSLKPEDTAVYYCNAADERSQGWVGYDNWGQCTQVTVSS”: the “polyreactivity (PSR sort gate)” value was “low polyreactivity”. As for “QVQLVESGGGLVQAGGSLRLSCAASGRIFYYNAMGWYRQAPGKERELVAAITFDGGRTYYADSVKGRFTISRDNAKNTVYLQMNSLKPEDTAVYYCAASWYYSDFYMYYWGQGTQVTVSS”, the “polyreactivity (PSR sort gate)” value was “high polyreactivity”.

With “QVQLVESGGGLVQAGGSLRLSCAASGSISWWYAMGWYRQAPGKERELVAAISSRGGSTYYADSVKGRFTISRDNAKNTVYLQMNSLKPEDTAVYYCAKYYYVGTSFYQGDYWGQGTQVTVSS”, the “polyreactivity (PSR sort gate)” value is on record as “low polyreactivity”. The value for “QVQLVESGGGLVQAGGSLRLSCAASGGIFWTYAMGWYRQAPWKERELVATITSGGSTNYADSVKGRFTISRDNAKNTVYLQMNSLKPEDTAVYYCNADWWWGYGYWGQGTQVTVSS” was “low polyreactivity”; that for “QVQLVESGGGLVQAGGSLRLSCAASGLTFTGYAMGWYRQAPGKERELVASISRSGASTFYADSVKGRFTISRDNAKNTVYLQMNSLKPEDTAVYYCAAVPGWLTSRYYYWGQGTHVTVSS” was “high polyreactivity”. As to “QVQLVESGGGLVQAGGSLRLICAASGSIFGHNAMGWYRQAPGKERELVAAINASDGNTYYADSVKGRFTISRDNAKNTVYLQMNSLKPEDTAVYYCAAEGYFDHYYYYRVYSWGQGTQVTVSS”, the “polyreactivity (PSR sort gate)” value was “low polyreactivity”. Consider “QVQLVESGGGLVQAGGSLRLSCAASGNTFQSYAMGRYRQAPGKEREFVAAIRQSGGSTYYADSVKGRFTISRDTAKYTVYLQMNSLKPEATAVYYCAAYFTPRKYKPYDYWGLGTQVTVSS”, for which the “polyreactivity (PSR sort gate)” value is given as “high polyreactivity”. The entry for “QVQLVESGGGLVQAGGSLRLSCAASGRTFYTNAMGWYRQAPGKERELVAAITRGGSTYYADSVKGRFTIPRDNAKNTVYLQMYSLKPEDTAVYYCAAAYASSWRQRVTSEKGYYWGQGTQVTVSS” is “high polyreactivity”; for “QVQLVESGGGLVQAGGSLRLSCAASGRIFDNYGMGWYRQAPGKERELVAAISSGGGRYYADSVTGRFTISRDNAKNTVYFQMHSLKPEDTAVYYCAKDPKYHLSGGYDYWGQGTQVTVSS” it is “low polyreactivity”; for “QVQLVESGGGLVQAGGSLRLSCAASGIIFPFYAMGWYRQAPGKERELVAAITSGDDTYYADSVKGRFTISRDNAKNTVYLQMNSLKPEVTAVYYCNKRLYIAGYWPQLYYIMDYWGQGTQVTVSS” it is “low polyreactivity”. The entry for “QVQLVESGGGLVQAGGSLRLSCAASGSTFGVNAMGWYRQAPGKERELVAGISVDDSTTYYADSVKGRFTISRDNAKNTVYLQMNSLIPEDTAVYYCAAEREKTLYYLSRFDYWGQGTQVTVSS” is “low polyreactivity”; for “QVQLVESGGGLVQAGGSLRLICAASGRIFPDYDMGWYRQAPGKERELVAAITQRGGSTYADSVKGRFTISRDNAKNTVYLQMNSLKPEDTAVYYCNARWQRPYDYWGQGTQVTVSS” it is “low polyreactivity”.

Consider “QVQLQESGGGLVQAGGSLRLSCAASCTISQEDWMGWYRQAPGKEREFVAAIGLGSNTNYADSLKGRFTISRDNAKNTVYLQMNSLKPEDTAVYYCAVTVWQYSDHVYRGQGTQVTVSS”, for which the “polyreactivity (PSR sort gate)” value is listed as “low polyreactivity”. Regarding “QVQLVESGGGLVQAGGSHRLSCAASGRIFVIYAMGWNRQAPGKERELVALITRGSSTYADSVKGRFTISRDNAKNTVYLQMYSLKPEDTAVYYCAARRYVTVDYDYWGQGTQVTVSS”, the “polyreactivity (PSR sort gate)” value was “high polyreactivity”.

For the sequence “QVQLVESGGGLVQAGGSLRLSCAASGSIFYYNAMGWYRQAPGKERELVAAISWSGDSTYYADSVKGRFTISRDNAKNTVYLQMNSLKPEDTAVYYCNTDLVPWTEYWYDYWGQGTQVTVSS”, the “polyreactivity (PSR sort gate)” value is given as “low polyreactivity”.

Consider “QVQLEESGGGLVQAGGSLRLTCAGSGSISYRYDMGWYRQATGKEMELVAVITGSGGSTYYADSVKGRFTISRDNAKNTVYLQMNSLKPEDTAVYYCANEPGENWTVSWRDFDFWGQGTQVTVSS”, for which the “polyreactivity (PSR sort gate)” value was “low polyreactivity”. The value for “QVQLVESGGGLLQAGGSLRLSCAASGGIIYYNAMGWSRQAPGKERELVAAIRYRGGSTYYADSVKGRFTISRDNEKNTVYLQMNSLKPEYTAVYYCAVDNLRRGLSLYDTLDYWGQGTQVTVSS” was “low polyreactivity”; that for “QVQLVESGGGLVQAGGSLRLSCAASGITFTVYAMGWYRQAPGKERELVAAISQSGGSTYYADSVKGRFTISRDNAKNTVYLQMNSLNPEYTAVYDCNSDTVWGPYRSYIPFDYWGQGTQVNVSS” was “low polyreactivity”.

The values above are taken from the nanobody polyreactivity screen of Harvey et al. (2022).
